The text below walks through data of IntAct's records for PubMed 24165324.

In this assay the target is gsk3b_human GSK3B (UniProt P49841).
Chain of UniProt P49841 (P49841 whole entry, looked up): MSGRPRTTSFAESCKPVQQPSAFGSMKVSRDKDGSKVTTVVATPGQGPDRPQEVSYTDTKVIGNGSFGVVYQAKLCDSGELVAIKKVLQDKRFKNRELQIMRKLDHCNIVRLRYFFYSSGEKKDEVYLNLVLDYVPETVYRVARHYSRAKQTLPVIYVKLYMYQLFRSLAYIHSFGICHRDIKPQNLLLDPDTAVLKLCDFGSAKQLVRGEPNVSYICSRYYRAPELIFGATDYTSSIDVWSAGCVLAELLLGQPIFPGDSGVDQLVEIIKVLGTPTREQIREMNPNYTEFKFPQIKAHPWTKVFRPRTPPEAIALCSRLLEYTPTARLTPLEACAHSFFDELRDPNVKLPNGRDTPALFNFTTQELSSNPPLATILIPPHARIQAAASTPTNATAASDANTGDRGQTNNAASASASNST

For “Leucine-rich repeat serine/threonine-protein kinase 2 (Homo sapiens), Q5S007 G2019S”, the “effect of a mutation on the interaction” value is on record as “increasing interaction”.
